The values that follow come from patent US20120009181A1.

This test deals with human folate receptor 1 (FOLR1) (human).

Consider MorAb-003 (Farletuzumab) (antibody), for which the EC50 of ADCC activity on IGROV-1 cells is 0.16 ng/mL.
